Laboratory results: PMC10541012

Experiments:
Cdh1 [1] = target: Cdh1 (UniProt P53197); assay: FLAG-bead in vitro Co-IP after Cla4; details: reference: wild type FLAG-Set1, Cla4-treated; sites S228
Cdh1 [2] = target: Cdh1 (UniProt P53197); assay: FLAG-bead in vitro Co-IP, immunoblot; details: reference: wild type FLAG-Set1; sites S228

| Substance | binding against the reference (Cdh1 [1]) | binding against the reference (Cdh1 [2]) |
| --- | --- | --- |
| Set1 (from UniProt P38827) FLAG-Set1-S228A, Cla4-treated | stronger |  |
| Set1 (from UniProt P38827) FLAG-Set1-S228A |  | stronger |
